Changes are numbered by the printed parent chain. “Also recorded” adds a separate entry of the source.
Key:
[1] = system: EPSP synthase (DGT enzymes); assay: In vitro kinetic characterization of plant and bacterial DGT enzymes (Pi production, malachite green); assay type: biochemical; conditions: for Km: read-out: KM^PEP, Km for phosphoenolpyruvate; for decrease in catalytic efficiency: relative to DGT-28 v1
Method: Recombinant DGT proteins were overexpressed in Rosetta2™ (DE3) cells (Novagen™, Madison, Wis.) from the constructs described above. A single colony was used to inoculate 50 mL starter cultures of LB containing chloramphenicol (25 μg/mL) and kanamycin (50 μg/mL) which were cultivated overnight at 37° C. The overnight cultures were used to inoculate 1 L of LB containing chloramphenicol (25 μg/mL) and kanamycin (50 μg/mL). The cultures were grown at 37° C. to an O.D.600=0.6 then placed in an ice water bath for 10 minutes. Expression of the target proteins was achieved by addition of IPTG to a final concentration of 500 μM.
DGT enzymes were purified to homogeneity in one step via immobilized metal affinity chromatography (IMAC) using a 5 mL HisTrap FF crude column. The column was equilibrated in Buffer A and the sample was loaded in the same buffer. The column was then washed with 10 column volumes of Buffer A followed by elution in a 0-100% Buffer B (50 mM HEPES pH 7.5, 200 mM KCl, 2 mM DTT, 1 mM EDTA, 500 mM imidazole, and 5% glycerol) linear gradient over 25 column volumes. Fractions containing target protein, as judged by SDS-PAGE analysis, were concentrated to 2.5 mL using a Millipore ultracentrifugation device equipped with a 10 kDa molecular weight cut-off (MWCO). The purified DGT enzymes were buffer exchanged using PD-10 columns (GE Healthcare) into 50 mM HEPES pH 7.5, 150 mM KCl, 2 mM DTT, and 5% glycerol and subsequently concentrated ˜1 mL. Samples were typically diluted 1:50 and the UV-visible spectrum was recorded from 240-700 nm on a Cary50™ Bio UV-visible spectrophotometer. A theoretical extinction coefficient was then used to calculate the protein concentration based on the absorbance at 280 nm (ExPASy, Geneva, Switzerland).
Frozen pellets were resuspended in 20-30 mL buffer A (50 mM HEPES pH 7.5, 100 mM KCl, 1 mM EDTA, 5% glycerol, and 1 mM DTT) and 1 tablet of protease inhibitor (Roche Complete). Once the pellet was completely resolubilized 1 mg/mL of lysozyme was added and the sample was mixed at 4° C. for 15-20 minutes. Following the incubation with the lysozyme the sample was transferred to a 50 mL centrifuge tube and placed on ice. The sample was then sonicated for 1 minute intervals followed by 4 minutes of cooling. This step was repeated two more times for a total of three sonication cycles. Cell debris was removed by centrifugation at 16,500 rpm for 45 minutes and the supernatant was loaded into a 50 mL injection loop. The crude lysate was applied to an amylose column, washed for 7 column volumes with buffer A, and eluted in 100% buffer B (Buffer A and 10 mM maltose). Target protein was pooled and concentrated to 2.5 mL using a 30 kDa MWCO centricon. The purified protein was buffer exchanged into 50 mM HEPES pH 7.5, 100 mM KCl, and 5% glycerol using a PD-10 gel filtration column. Protein concentrations were determined via Bradford assay using BSA as a standard. The pure protein was frozen in liquid nitrogen and stored at −80° C.
The enzyme activities of wild-type (WT) and mutant DGTs were measured by inorganic phosphate (Pi) production in a modified procedure described by Lanzetta et al. (1979) Anal. Bioch. 100:95-7. Assays were performed in 96-well plate format in a total of 50 μL on a Spectra-Max 190 plate reader (Molecular Devices, Sunnyvale, Calif.). Typical assays contained 50 mM HEPES pH 7.5, 150 mM KCl, 2 mM DTT, and 1 mM S3P. […] Glyphosate was obtained from Sigma as the free acid and was resuspended in ddH2O. Glyphosate was solubilized by addition of KOH until the mixture was at a neutral pH. Assays were initiated by addition of the DGT enzyme at concentrations that varied between 0.01-1 μM. Reactions were terminated by the addition of 235 μL of a 3:1 mixture of malachite green: ammonium molybdate solution. After complete color development (˜1 minute), the absorbance change at 660 nm was recorded and the amount of Pi formed was calculated from a standard curve. […]

[2] = system: T1 Arabidopsis; assay: Glyphosate tolerance of transformed T1 Arabidopsis, postemergence spray, visual % injury; assay type: in vivo, Arabidopsis thaliana
From the text: Transgenic T1 Arabidopsis plants containing the dgt-28 transgene were sprayed with differing rates of glyphosate. Elevated rates were applied in this study to determine the relative levels of resistance (105, 420, 1,680 or 3,360 g ae/ha). A typical 1× field usage rate of glyphosate is 1120 g ae/ha. The T1 Arabidopsis plants that were used in this study were variable copy number for the dgt-28 transgene. The low copy dgt-28 T1 Arabidopsis plants were self-pollinated and used to produce T2 plants.
The Arabidopsis T1 transformants were first selected from the background of untransformed seed using a glufosinate selection scheme. Three flats or 30,000 seed were analyzed for each T1 construct. The T1 plants selected above were molecularly characterized and the high copy number plants were subsequently transplanted to individual pots and sprayed with various rates of commercial glyphosate as previously described. The response of these plants is presented in terms of % visual injury 2 weeks after treatment (WAT). […] An arithmetic mean and standard deviation is presented for each construct used for Arabidopsis transformation. The range in individual response is also indicated in the last column for each rate and transformation. Wild-type, non-transformed Arabidopsis (c.v. Columbia) served as a glyphosate sensitive control.
T1 plants were sampled and copy number analysis for the dgt-31, dgt-32, and dgt-33 v1 gene were completed. T1 plants were then assigned to various rates of glyphosate so that a range of copies were among each rate. For Arabidopsis, 26.25 g ae/ha glyphosate is an effective dose to distinguish sensitive plants from ones with meaningful levels of resistance. Elevated rates were applied to determine relative levels of resistance (105, 420, 1680, or 3360 g ae/ha).
All glyphosate herbicide applications were made by track sprayer in a 187 L/ha spray volume. Glyphosate used was of the commercial Durango dimethylamine salt formulation (480 g ae/L, Dow AgroSciences, LLC). […]

B1: DGT-28v1: Class IV EPSP synthase from Streptomyces sviceus ATCC29083, SEQ ID NO:1, native (protein, listed as Streptomyces sviceus)
chain: MRGMPALSLPGSKSITARALFLAAAADGVTTLVRPLRSDDTEGFAEGLVRLGYRVGRTPDTWQVDGRPQGPAVAEADVYCRDGATTARFLPTLAAAGHGTYRFDASPQMRRRPLLPLSRALRDLGVDLRHEEAEGHHPLTVRAAGVEGGEVTLDAGQSSQYLTALLLLGPLTRQGLRIRVTDLVSAPYVEITLAMMRAFGVEVAREGDVFVVPPGGYRATTYAIEPDASTASYFFAAAALTPGAEVTVPGLGTGALQGDLGFVDVLRRMGAEVSVGADATTVRGTGELRGLTANMRDISDTMPTLAAIAPFASAPVRIEDVANTRVKECDRLEACAENLRRLGVRVATGPDWIEIHPGPATGAQVTSYGDHRIVMSFAVTGLRVPGISFDDPGCVRKTFPGFHEAFAELRRGIGS
tolerant to glyphosate at concentrations [1]: > 80 mM | Km [1]: 91.6 µM

B2: DGT-32: Streptomyces Class IV EPSP synthase, GENBANK ZP_04696613, SEQ ID NO:68 (protein)
chain: DRWRVQGRPAGPAATEADVYCRDGATTARFLPTLAAAAASGTYRFDASAQMRRRPLAPLTRALTALGVDLRH
modifications: Streptomyces roseosporus NRRL 15998
tolerance to glyphosate [2]: significant tolerance; also recorded: robust tolerance | Km [1]: 140 µM | decrease in catalytic efficiency [1]: 100 fold

B3: DGT-33: Streptomyces Class IV EPSP synthase, GENBANK NC_010572, SEQ ID NO:67 (protein)
chain: B2 chain with Q6E, A10D, T15P, E16D, A35V
modifications: Streptomyces griseus subsp. griseus NBRC 13350
tolerance to glyphosate [2]: significant tolerance; also recorded: robust tolerance | Km [1]: 114 µM | decrease in catalytic efficiency [1]: 100 fold

B4: DGT-31: Streptomyces Class IV EPSP synthase, GENBANK YP_004922608.1, SEQ ID NO:145 (protein)
chain: MTVIDIPGSKSVTARALFLAAAADGTTTLLRPLHSDDTEGFTEGLTRLGYAVVREPDRWHIEGRPSGPAAADAEVHCRDGATTARFLPTLAAAAASGTYRFDASAQMRRRPLAPLTEALRTLGVDLRHDGAEGHHPLTIQASGVKGGGLTLDAGESSQYLTALLMLGPLTAEGLRIEVTELVSAPYVEITLAMMRGFGVEVVREGNTFTVPPGGYRATTYAIEPDASTASYFFAAAALTGREVTVPGLGTGALQGDLRFTEVLRRMDADVRTTSDSTTVRSDGRLAGLTVNMRDISDTMPTLAAIAPYASSPVRIEDVANTRVKECDRLEACAQNLRSMGITVRTGPDWIEIHPGTPRPTEIATHGDHRIVMSFAVAGLRTPGMSYDDPGCVRKTFPRFHEEFAAFVERSSAGE
modifications: Streptomyces pratensis ATCC 33331
tolerance to glyphosate [2]: slight herbicide tolerance

Reference: US10577618B2, “Class of glyphosate resistance genes” (Dow AgroSciences LLC, priority 2012, dated 2020)
